Measured values reported in patent publication US20230265215A1 (OMEROS, published 2023).
Values joined by “and” are separate entries in the source; they are usually repeats but may differ in a detail not shown here. Equal entries are not always repeated.

B1: mAb OMS870 (mouse-human chimeric, mouse parental variable regions) (antibody, human IgG4 S228P, kappa, V domains shown)
VH: EVQLQQPGTELVKPGASVKLSCKASGYTFTSYWMHWVKQRPGQGLEWIGNINPSNGGTNCNEKFKNKATMTVDKSSSTAYMQLSSLTSEDSAVYYCARWAYDAMDYWGQGTSVTVSS
VL: DIVLTQSPASLAVSLGQRATISCRASESVDSYGNSFMHWYQQKPGQAPKLLIYFASNLESGVPARFSGSGSRTDFTLTIDPVEADDAATYFCQQSNEDPLTFGAGTKLELKR
B2: mAb OMS850 (mouse-human chimeric, mouse parental variable regions) (antibody, human IgG4 S228P, kappa, V domains shown)
VH: QVQLQQPGAELVRPGSSVRLSCKASGYTFTNYWMHWLKQRPIQGLEWIGDIDPSDSETHYIEKFKDKATLTIDKSSSTAYMHLSSLTSEDSAIYYCARGDITTTLRYFDVWGTGTTVTVSS
VL: QIVLTQSPVIMSASPGEKVTMTCSASSSVRYMYWYQQKPGSSPRLLIYDTSNLASGVPVRFSGSGSGTSNSLTISRMEAEDAATYYCQQWSSYPLTFGAGTKLELKR
notes: also called OMS850 parent
B3: OMS850_VH_P53/D (antibody, IgG4, V domains shown)
VH: QVQLQQPGAELVRPGSSVRLSCKASGYTFTNYWMHWLKQRPIQGLEWIGDIDDSDSETHYIEKFKDKATLTIDKSSSTAYMHLSSLTSEDSAIYYCARGDITTTLRYFDVWGTGTTVTVSS
VL: QIVLTQSPVIMSASPGEKVTMTCSASSSVRYMYWYQQKPGSSPRLLIYDTSNLASGVPVRFSGSGSGTSNSLTISRMEAEDAATYYCQQWSSYPLTFGAGTKLELKR
B4: OMS850_VH_P53/N (antibody, IgG4, V domains shown)
VH: QVQLQQPGAELVRPGSSVRLSCKASGYTFTNYWMHWLKQRPIQGLEWIGDIDNSDSETHYIEKFKDKATLTIDKSSSTAYMHLSSLTSEDSAIYYCARGDITTTLRYFDVWGTGTTVTVSS
VL: QIVLTQSPVIMSASPGEKVTMTCSASSSVRYMYWYQQKPGSSPRLLIYDTSNLASGVPVRFSGSGSGTSNSLTISRMEAEDAATYYCQQWSSYPLTFGAGTKLELKR
B5: OMS850_VH_P53/A (antibody, IgG4, V domains shown)
VH: QVQLQQPGAELVRPGSSVRLSCKASGYTFTNYWMHWLKQRPIQGLEWIGDIDASDSETHYIEKFKDKATLTIDKSSSTAYMHLSSLTSEDSAIYYCARGDITTTLRYFDVWGTGTTVTVSS
VL: QIVLTQSPVIMSASPGEKVTMTCSASSSVRYMYWYQQKPGSSPRLLIYDTSNLASGVPVRFSGSGSGTSNSLTISRMEAEDAATYYCQQWSSYPLTFGAGTKLELKR
B6: mAb OMS860 (mouse-human chimeric, mouse parental variable regions) (antibody, human IgG4 S228P, kappa, V domains shown)
VH: QVQLQQPGAELVRPGSSVKLSCKASGYTFTNYWMHWVRQRPIQGLEWIGDIDPSDSEIYYNQKFKDKATLTVDKSSSTAYMHLSSLTSEDSAVYYCARGDITTTLRYFDVWGTGTTVTVSS
VL: QIVLTQSPVIMSASPGEKVTITCSASSSVSYMYWYQQKPGSSPRLLIYDTSNLASGVPVRFSGSGSGTSNSLTISRMEAEDAATYYCQQWSSYPLTFGAGTKLELKR
B7: OMS854 (monoclonal antibody OMS852 4PA-1) (antibody, V domains shown)
VH: QVQLVQSGAEVKKPGASVKVSCKASGYTFTNYWMHWLRQAPGQGLEWIGDIDASDSETHYIEKFKDRATLTIDKSSSTAYMELSSLRSEDTAVYYCARGDITTTLRYFDVWGQGTLVTVSS
VL: DIQLTQSPSSLSASVGDRVTITCSASSSVRYMYWYQQKPGKAPKLLIYDTSNLASGVPSRFSGSGSGTDNTLTISSLQPEDFATYYCQQWSSYPLTFGQGTKVEIKR

Assays:
[1] = target: T1, human MASP-2 (CCP1-CCP2-SP fragment) (human, UniProt O00187 287-686, limits assumed); test: solid phase ELISA, plate coated with human MASP-2 CCP1-CCP2-SP fragment
T1 construct: also called human MASP-2 (CCP1/2/SP fragment); hMASP-2-CCP1-CCP2-SP
T1 sequence (O00187 287-686 limits assumed): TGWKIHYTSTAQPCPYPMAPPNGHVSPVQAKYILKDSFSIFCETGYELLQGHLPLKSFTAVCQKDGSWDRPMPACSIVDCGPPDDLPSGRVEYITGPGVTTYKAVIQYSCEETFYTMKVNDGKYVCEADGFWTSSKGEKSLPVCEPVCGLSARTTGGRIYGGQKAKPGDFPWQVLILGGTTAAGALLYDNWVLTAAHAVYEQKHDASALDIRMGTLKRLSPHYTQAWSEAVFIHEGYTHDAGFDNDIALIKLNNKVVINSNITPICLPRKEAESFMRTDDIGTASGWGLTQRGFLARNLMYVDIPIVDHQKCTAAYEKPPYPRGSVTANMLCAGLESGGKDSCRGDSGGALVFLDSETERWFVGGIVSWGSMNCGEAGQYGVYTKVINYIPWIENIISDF
Protocol: To measure binding of the 26 purified recombinant MASP-2 antibodies to human MASP-2 (CCP1-CCP2-SP fragment), a solid phase ELISA assay was carried out as follows. A MaxiSorp ELISA plate was coated with human MASP-2 (CCP1/2/SP fragment) at 1.0 μg/mL in carbonate/bi-carbonate buffer overnight at 4° C. […] The plate was washed (PBS-T, 0.05%) and a detection antibody was added (goat anti-human IgG-HRP) for one hour at room temperature. After another wash (PBS-T, 0.05%) the plate was developed (5 minutes) with OPT EIA TMB (BD Biosciences #555214). Absorbance reading at A450 was measured using the Spectramax M5e plate reader.
A solid phase ELISA assay was carried out to measure binding of the three selected MASP-2 inhibitory antibodies to human MASP-2 (CCP1-CCP2-SP fragment), as described in Example 1.

[2] = target: T2, human MASP-2 (endogenous, in normal human serum) (human, UniProt O00187 16-686); test: cell-based or functional assay
T2 sequence (O00187 16-686 limits assumed): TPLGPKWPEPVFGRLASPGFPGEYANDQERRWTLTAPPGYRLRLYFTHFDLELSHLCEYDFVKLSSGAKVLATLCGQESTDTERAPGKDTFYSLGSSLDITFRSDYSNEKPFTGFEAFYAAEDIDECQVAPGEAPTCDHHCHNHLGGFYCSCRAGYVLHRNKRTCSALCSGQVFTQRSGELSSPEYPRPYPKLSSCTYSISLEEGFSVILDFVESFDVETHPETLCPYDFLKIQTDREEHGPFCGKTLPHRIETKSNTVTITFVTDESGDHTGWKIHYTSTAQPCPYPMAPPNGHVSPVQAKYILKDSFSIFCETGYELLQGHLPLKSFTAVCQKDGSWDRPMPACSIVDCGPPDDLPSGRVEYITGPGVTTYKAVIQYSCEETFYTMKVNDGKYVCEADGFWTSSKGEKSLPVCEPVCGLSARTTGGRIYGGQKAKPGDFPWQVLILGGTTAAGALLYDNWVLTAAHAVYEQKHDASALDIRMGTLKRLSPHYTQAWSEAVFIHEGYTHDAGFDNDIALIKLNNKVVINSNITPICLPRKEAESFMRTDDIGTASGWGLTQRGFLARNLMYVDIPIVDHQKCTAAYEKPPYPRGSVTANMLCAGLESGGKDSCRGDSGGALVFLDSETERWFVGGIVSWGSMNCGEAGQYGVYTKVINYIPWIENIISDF

[3] = target: mouse MASP-2 (endogenous, in mouse serum or hirudin plasma) (mouse, UniProt Q91WP0 20-685); test: cell-based or functional assay
mouse MASP-2 (endogenous, in mouse serum or hirudin plasma), sequence (Q91WP0 20-685 limits assumed): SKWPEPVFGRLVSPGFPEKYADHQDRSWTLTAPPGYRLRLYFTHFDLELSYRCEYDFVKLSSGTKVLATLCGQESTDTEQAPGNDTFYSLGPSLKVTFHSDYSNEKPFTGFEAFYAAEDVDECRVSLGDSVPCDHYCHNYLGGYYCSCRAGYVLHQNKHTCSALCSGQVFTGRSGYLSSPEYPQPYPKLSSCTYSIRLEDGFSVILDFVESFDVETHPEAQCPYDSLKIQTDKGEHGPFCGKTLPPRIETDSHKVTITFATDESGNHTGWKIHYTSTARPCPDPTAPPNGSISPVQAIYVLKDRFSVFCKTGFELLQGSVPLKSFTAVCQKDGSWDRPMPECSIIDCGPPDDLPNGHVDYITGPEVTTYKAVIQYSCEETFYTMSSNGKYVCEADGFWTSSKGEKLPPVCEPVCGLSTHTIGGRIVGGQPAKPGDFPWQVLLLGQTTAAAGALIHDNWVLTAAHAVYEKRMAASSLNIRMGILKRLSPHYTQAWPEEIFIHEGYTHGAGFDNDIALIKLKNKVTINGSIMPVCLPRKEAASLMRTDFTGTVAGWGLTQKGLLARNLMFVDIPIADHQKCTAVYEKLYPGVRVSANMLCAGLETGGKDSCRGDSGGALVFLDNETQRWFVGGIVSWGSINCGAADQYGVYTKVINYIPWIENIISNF

[4] = target: T2, human MASP-2 (endogenous, in normal …); test: cell-based or functional assay; remark: listed apart in the source
[5] = target: cynomolgus monkey MASP-2 (endogenous, in cynomolgus monkey serum) (cynomolgus monkey, UniProt O00187 16-686 (human entry), limits assumed); test: cell-based or functional assay
cynomolgus monkey MASP-2 (endogenous, in cynomolgus monkey serum), sequence (O00187 other isoform, or with tags, fused parts or gaps limits assumed): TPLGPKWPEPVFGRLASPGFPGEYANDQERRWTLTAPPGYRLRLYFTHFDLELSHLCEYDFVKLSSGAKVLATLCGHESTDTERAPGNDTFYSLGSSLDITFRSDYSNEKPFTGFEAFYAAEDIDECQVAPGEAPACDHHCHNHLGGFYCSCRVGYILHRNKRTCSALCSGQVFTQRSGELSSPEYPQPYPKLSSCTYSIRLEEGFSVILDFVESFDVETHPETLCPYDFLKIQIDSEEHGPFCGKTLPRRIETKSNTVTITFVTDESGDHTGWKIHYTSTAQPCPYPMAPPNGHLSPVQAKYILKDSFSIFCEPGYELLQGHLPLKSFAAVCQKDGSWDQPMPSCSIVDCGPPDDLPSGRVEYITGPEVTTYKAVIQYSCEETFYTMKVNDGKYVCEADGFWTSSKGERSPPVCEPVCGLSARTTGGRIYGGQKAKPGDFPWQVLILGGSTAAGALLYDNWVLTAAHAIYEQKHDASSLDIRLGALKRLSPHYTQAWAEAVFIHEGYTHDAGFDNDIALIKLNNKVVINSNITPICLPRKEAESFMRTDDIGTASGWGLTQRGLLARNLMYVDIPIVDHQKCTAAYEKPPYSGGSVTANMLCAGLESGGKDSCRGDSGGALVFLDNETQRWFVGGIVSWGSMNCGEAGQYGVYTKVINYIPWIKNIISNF

[6] = target: rat MASP-2 (endogenous, in rat serum) (rat, UniProt Q9JJS8 20-685); test: cell-based or functional assay
rat MASP-2 (endogenous, in rat serum), sequence (Q9JJS8 other isoform, or with tags, fused parts or gaps limits assumed): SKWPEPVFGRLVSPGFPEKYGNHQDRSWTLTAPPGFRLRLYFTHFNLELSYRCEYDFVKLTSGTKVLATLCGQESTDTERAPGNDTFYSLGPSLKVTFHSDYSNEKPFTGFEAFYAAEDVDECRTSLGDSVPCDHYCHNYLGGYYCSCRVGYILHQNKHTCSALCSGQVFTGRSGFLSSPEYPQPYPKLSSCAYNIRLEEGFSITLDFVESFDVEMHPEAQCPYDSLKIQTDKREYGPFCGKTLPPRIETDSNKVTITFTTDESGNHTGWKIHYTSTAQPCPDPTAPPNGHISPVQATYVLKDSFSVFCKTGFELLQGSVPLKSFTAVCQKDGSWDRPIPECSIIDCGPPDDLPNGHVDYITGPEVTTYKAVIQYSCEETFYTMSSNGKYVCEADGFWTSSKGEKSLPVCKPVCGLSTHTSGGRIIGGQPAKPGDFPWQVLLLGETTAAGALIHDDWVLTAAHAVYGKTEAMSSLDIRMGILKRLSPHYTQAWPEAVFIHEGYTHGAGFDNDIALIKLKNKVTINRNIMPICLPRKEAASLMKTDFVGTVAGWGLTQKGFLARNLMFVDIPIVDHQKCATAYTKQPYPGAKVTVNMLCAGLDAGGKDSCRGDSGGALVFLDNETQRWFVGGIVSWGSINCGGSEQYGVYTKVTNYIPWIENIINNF

[7] = target: T2, human MASP-2 (endogenous, in normal …); test: cell-based or functional assay; remark: listed apart in the source
[8] = target: T2, human MASP-2 (endogenous, in normal …); test: cell-based or functional assay; remark: listed apart in the source

| Binder | EC50 [1] | C4b deposition on mannan, 50% human serum, IC50 [2] | C3b deposition on mannan, 1.0% mouse serum, IC50 [3] | C3b deposition on mannan, 1.0% human serum, IC50 [4] | C3b deposition on mannan, 0.25% cynomolgus monkey serum, IC50 [5] | C3b deposition on mannan, 0.3% rat serum, IC50 [6] | Human C3b deposition, IC50 [7] | Human C3b deposition, 1% human serum, IC50 [8] |
| --- | --- | --- | --- | --- | --- | --- | --- | --- |
| B1 | 0.41 nM | 0.09 mg/L | > 100 nM | 0.13 nM | 18.9 nM | 0.6 nM |  |  |
| B2 | 0.25 nM | 0.07 mg/L | 0.5 nM | 0.15 nM | 0.4 nM | 0.05 nM | 0.09 nM | 0.15 nM and 0.12 nM |
| B3 |  |  |  |  |  |  | 0.16 nM |  |
| B4 |  |  |  |  |  |  | 0.53 nM |  |
| B5 |  |  |  |  |  |  | 0.07 nM |  |
| B6 | 0.23 nM | 0.1 mg/L | 5.8 nM | 0.6 nM | 26.2 nM | 0.3 nM |  |  |
| B7 |  |  |  |  |  |  |  | 0.09 nM |
